Experimental findings from patent US20180303952A1 (CYTOMX THERAPEUTICS, published 2018) are described below.

For test [1], the target named is T1, human CD147 protein (adsorbed to ELISA plates) (human, UniProt P35613-2 22-205, limits assumed).
T1 construct: also called human CD147 polypeptide; Basigin
T1 sequence (looked up): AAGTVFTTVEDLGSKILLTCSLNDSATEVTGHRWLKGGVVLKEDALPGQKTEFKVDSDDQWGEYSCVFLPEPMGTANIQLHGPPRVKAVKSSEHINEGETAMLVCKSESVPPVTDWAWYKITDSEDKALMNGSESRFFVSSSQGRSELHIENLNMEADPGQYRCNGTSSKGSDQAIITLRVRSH
Description: ELISA, human CD147 protein adsorbed to plate, anti-mouse Fc-peroxidase detection; apparent KD. The protocol:
The antibody of the present disclosure that was assayed in this exemplary study was hu 3A11 Lc1/Hc1 (VL of SEQ ID NO: 5 and VH of SEQ ID NO: 1). Mouse anti-human CD147 monoclonal antibody 3A11 (VL of SEQ ID NO: 8 and VH of SEQ ID NO: 4) was assayed as a reference. Using a standard ELISA protocol, human CD147 protein was absorbed to ELISA plates and subsequently incubated with the indicated concentration of antibody of the present disclosure. Bound humanized antibody of the present disclosure was detected with anti-human Fab-peroxidase secondary antibody and the mouse 3A11 monoclonal antibody was detected with anti-mouse Fc-peroxidase secondary antibody, and Ultra TMB detection (Thermo Fisher Scientific).

Test [2] deals with T1, human CD147 protein (adsorbed to ELISA …). Description: ELISA, human CD147 protein adsorbed to plate, intact activatable antibody; apparent KD. The protocol: Humanized anti-human CD147 antibodies of the present disclosure hu 3A11 Hc1/Lc1 (VL of SEQ ID NO: 5 and VH of SEQ ID NO: 1) were used as a control.
Using a standard ELISA protocol, human CD147 protein was absorbed to ELISA plates and subsequently incubated with the indicated concentration of antibody of the present disclosure. Bound humanized activatable antibody of the present disclosure was detected with anti-human Fab-peroxidase secondary antibody and Ultra TMB detection (Thermo Fisher Scientific).
On the technique in general: An ELISA detects its analyte on a solid surface through an enzyme-linked reagent.

For test [3] the target is unchanged. Described as above. The protocol:
For the exemplary assay depicted in FIGS. 7A-7C, standard ELISA protocol was used, in which human CD147 protein was absorbed to ELISA plates and subsequently incubated with the indicated concentration of antibody of the present disclosure. Bound humanized activatable antibody of the present disclosure was detected with anti-human Fab-peroxidase secondary antibody and Ultra TMB detection (Thermo Fisher Scientific).
The source holds these as a separate data set.

Test [4] shares this target. As to the kind of experiment: ELISA, human CD147 protein adsorbed to plate, anti-human Fab-peroxidase detection; apparent KD. The protocol: The antibodies of the present disclosure that were assayed in this exemplary study were hu 3A11 Lc1/hu 3A11 Hc1 (VL of SEQ ID NO: 5 and VH of SEQ ID NO: 1), hu 3A11 Lc2/hu 3A11 Hc2 (VL of SEQ ID NO: 6 and VH of SEQ ID NO: 2), hu 3A11 Lc4/hu 3A11 Hc2 (VL of SEQ ID NO: 8 and VH of SEQ ID NO: 2). Using a standard ELISA protocol, human CD147 protein was absorbed to ELISA plates and subsequently incubated with the indicated concentration of antibody of the present disclosure. Bound humanized antibody of the present disclosure was detected with anti-human Fab-peroxidase secondary antibody, and Ultra TMB detection (Thermo Fisher Scientific).

B1: mouse anti-human CD147 monoclonal antibody 3A11 (antibody, V domains shown)
VH: EVKLEESGGGLVQPGGSMKLSCVASGFTFSNYWMNWVRQSPEKGLEWVGEIRLKSYNYATHYVESVEGRFTISRDDSKSSVYLQMNNLRAEDTGIYYCTAAGTDYWGQGTTLTVSS
VL: SIVMTQIPKILLVSAGDRVTITCKASQSVRTDVAWYQQKPGQSPKLLIYYSSNRYTGVPDRFTGSGYGTDFTFTISTVQAEDLAVYFCQQDYSSPFTFGSGTKLEIK
notes: Mouse hybridoma antibody, detected with anti-mouse Fc secondary antibody; also called Mouse 3A11; mu 3A11
With B1, in test [1], the Kd worked out at 0.293 nM.

B2: anti-human CD147 activatable antibody hu 3A11 Hc1/Lc1-414-3001 (antibody)
VH: EVQLVESGGGLVQPGGSLRLSCAASGFTFSNYWMDWVRQAPGKGLEWVGEIRLKSYNYATHYAASVKGRFTISRDDSKNSVYLQMNSLKTEDTAVYYCTAAGTDYWGQGTLVTVSS
VL: THGPCHFKPNCSYPTGGGSSGGSAVGLLAPPGGLSGRSDNHGGSDIQMTQSPSSLSASVGDRVTITCRASQSVRTDVGWYQQKPGKAPKLLIYYSSNRYTGVPSRFSGSGSGTDFTLTISSLQPEDFATYYCQQDYSSPYTFGQGTKLEIK
notes: also called hu 3A11-414-3001
B2: the Kd was 16 nM in test [2] and 24.7 nM in test [3].

B3: anti-human CD147 activatable antibody hu 3A11 Hc1/Lc1-415.1-2012 (antibody, V domains shown)
VH: EVQLVESGGGLVQPGGSLRLSCAASGFTFSNYWMDWVRQAPGKGLEWVGEIRLKSYNYATHYAASVKGRFTISRDDSKNSVYLQMNSLKTEDTAVYYCTAAGTDYWGQGTLVTVSS
VL: LHGPCHFNNCNTLGGGSSGGSISSGLLSGRSANPGGGSDIQMTQSPSSLSASVGDRVTITCRASQSVRTDVGWYQQKPGKAPKLLIYYSSNRYTGVPSRFSGSGSGTDFTLTISSLQPEDFATYYCQQDYSSPYTFGQGTKLEIK
notes: also called hu 3A11-415.1-2012
As for B3, the Kd in test [3] is 4.68 nM.

B4: anti-human CD147 activatable antibody hu 3A11 Hc1/Lc1-419.3-3001 (antibody, V domains shown)
VH: EVQLVESGGGLVQPGGSLRLSCAASGFTFSNYWMDWVRQAPGKGLEWVGEIRLKSYNYATHYAASVKGRFTISRDDSKNSVYLQMNSLKTEDTAVYYCTAAGTDYWGQGTLVTVSS
VL: LHGPCHYDLKCKGGGSSGGSAVGLLAPPGGLSGRSDNHGGSDIQMTQSPSSLSASVGDRVTITCRASQSVRTDVGWYQQKPGKAPKLLIYYSSNRYTGVPSRFSGSGSGTDFTLTISSLQPEDFATYYCQQDYSSPYTFGQGTKLEIK
notes: also called hu 3A11-419.3-3001
In the case of B4, in test [3], the Kd stood at 73.5 nM.

B5: anti-human CD147 activatable antibody hu 3A11 Hc1/Lc1-419.3-2012 (antibody, V domains shown)
VH: EVQLVESGGGLVQPGGSLRLSCAASGFTFSNYWMDWVRQAPGKGLEWVGEIRLKSYNYATHYAASVKGRFTISRDDSKNSVYLQMNSLKTEDTAVYYCTAAGTDYWGQGTLVTVSS
VL: LHGPCHYDLKCKGGGSSGGSISSGLLSGRSANPGGGSDIQMTQSPSSLSASVGDRVTITCRASQSVRTDVGWYQQKPGKAPKLLIYYSSNRYTGVPSRFSGSGSGTDFTLTISSLQPEDFATYYCQQDYSSPYTFGQGTKLEIK
notes: also called hu 3A11-419.3-2012
For the molecule B5, in test [3], the Kd worked out at 10 nM.

B6: anti-human CD147 activatable antibody hu 3A11 Hc1/Lc1-419.2-3001 (antibody, V domains shown)
VH: EVQLVESGGGLVQPGGSLRLSCAASGFTFSNYWMDWVRQAPGKGLEWVGEIRLKSYNYATHYAASVKGRFTISRDDSKNSVYLQMNSLKTEDTAVYYCTAAGTDYWGQGTLVTVSS
VL: LHGPCHYDLKCKNNGGGSSGGSAVGLLAPPGGLSGRSDNHGGSDIQMTQSPSSLSASVGDRVTITCRASQSVRTDVGWYQQKPGKAPKLLIYYSSNRYTGVPSRFSGSGSGTDFTLTISSLQPEDFATYYCQQDYSSPYTFGQGTKLEIK
notes: also called hu 3A11-419.2-3001
With B6, the Kd in test [3] came to 20.8 nM.

B7: anti-human CD147 activatable antibody hu 3A11 Hc1/Lc1-414.3-2012 (antibody, V domains shown)
VH: EVQLVESGGGLVQPGGSLRLSCAASGFTFSNYWMDWVRQAPGKGLEWVGEIRLKSYNYATHYAASVKGRFTISRDDSKNSVYLQMNSLKTEDTAVYYCTAAGTDYWGQGTLVTVSS
VL: THGPCHFKPNCAYPTGGGSSGGSISSGLLSGRSANPGGGSDIQMTQSPSSLSASVGDRVTITCRASQSVRTDVGWYQQKPGKAPKLLIYYSSNRYTGVPSRFSGSGSGTDFTLTISSLQPEDFATYYCQQDYSSPYTFGQGTKLEIK
notes: also called hu 3A11-414.3-2012
On to B7, for which the Kd in test [3] came out at 5.92 nM.

B8: humanized anti-human CD147 antibody hu 3A11 Lc2/hu 3A11 Hc2 (antibody, V domains shown)
VH: EVQLVESGGGLVQPGGSLRLSCAASGFTFSNYWMNWVRQAPGKGLEWVGEIRLKSYNYATHYAASVKGRFTISRDDSKNSLYLQMNSLKTEDTAVYYCARAGTDYWGQGTLVTVSS
VL: DIQMTQSPSSLSASVGDRVTITCKASQSVRTDVAWYQQKPGKAPKLLIYYSSNRYTGVPSRFSGSGSGTDFTLTISSLQPEDFATYYCQQDYSSPFTFGQGTKLEIK
notes: also called hu 3A11 (hu Lc2/hu Hc2)
B8: the Kd in test [4] amounted to 0.726 nM.

B9: humanized anti-human CD147 antibody hu 3A11 Lc4/hu 3A11 Hc2 (antibody, V domains shown)
VH: EVQLVESGGGLVQPGGSLRLSCAASGFTFSNYWMNWVRQAPGKGLEWVGEIRLKSYNYATHYAASVKGRFTISRDDSKNSLYLQMNSLKTEDTAVYYCARAGTDYWGQGTLVTVSS
VL: DIQMTQSPSSLSVSVGDRVTITCKASQSVRTDVAWYQQKPGKAPKLLIYYSSNRYTGVPSRFSGSGYGTDFTFTISSVQPEDFATYYCQQDYSSPFTFGQGTKLEIK
notes: also called hu 3A11 (hu Lc4/hu Hc2)
With B9, the Kd in test [4] was found to be 0.902 nM.

B10: anti-human CD147 activatable antibody hu 3A11 Hc1/Lc1-415-2012 (antibody, V domains shown)
VH: EVQLVESGGGLVQPGGSLRLSCAASGFTFSNYWMDWVRQAPGKGLEWVGEIRLKSYNYATHYAASVKGRFTISRDDSKNSVYLQMNSLKTEDTAVYYCTAAGTDYWGQGTLVTVSS
VL: LHGPCHFNNCNTLKLGGGSSGGSISSGLLSGRSANPGGGSDIQMTQSPSSLSASVGDRVTITCRASQSVRTDVGWYQQKPGKAPKLLIYYSSNRYTGVPSRFSGSGSGTDFTLTISSLQPEDFATYYCQQDYSSPYTFGQGTKLEIK
notes: also called hu 3A11-415-2012
For the molecule B10, the Kd in test [3] is 1.43 nM.

B11: anti-human CD147 activatable antibody hu 3A11 Hc1/Lc1-414.4-2012 (antibody, V domains shown)
VH: EVQLVESGGGLVQPGGSLRLSCAASGFTFSNYWMDWVRQAPGKGLEWVGEIRLKSYNYATHYAASVKGRFTISRDDSKNSVYLQMNSLKTEDTAVYYCTAAGTDYWGQGTLVTVSS
VL: THGPCHFRPNCAYPTGGGSSGGSISSGLLSGRSANPGGGSDIQMTQSPSSLSASVGDRVTITCRASQSVRTDVGWYQQKPGKAPKLLIYYSSNRYTGVPSRFSGSGSGTDFTLTISSLQPEDFATYYCQQDYSSPYTFGQGTKLEIK
notes: also called hu 3A11-414.4-2012
As for B11, in test [3], the Kd is 6.73 nM.
